Test results as given in article PMC10058238, “Mechanism of sphingolipid homeostasis revealed by structural analysis of Arabidopsis SPT-ORM1 complex” (Science Advances, 2023).

T1: Flag-tagged Arabidopsis SPTssa (Arabidopsis, UniProt A8MSB8 1-56)
T1 construct: SPTssa, small subunit of serine palmitoyltransferase, Arabidopsis; codon-optimized cDNA in pCAG; residues 1 to 48 are in the atomic model; The only tagged subunit; bait of every purification; also called Flag-SPTssa; Flag-AtSPTssa; source: HEK293F, transiently cotransfected with the other subunits, purified as a complex (anti-Flag resin, Superose 6) in GDN; not shown: Flag, N-terminal, kept
T1 sequence: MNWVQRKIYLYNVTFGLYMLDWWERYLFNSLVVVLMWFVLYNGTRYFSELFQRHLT

T2: Arabidopsis SPT complex (LCB1, LCB2a, SPTssa) (Arabidopsis, UniProt Q94IB8 1-482; Q9LSZ9 1-489; A8MSB8 1-56)
T2 sequence 1: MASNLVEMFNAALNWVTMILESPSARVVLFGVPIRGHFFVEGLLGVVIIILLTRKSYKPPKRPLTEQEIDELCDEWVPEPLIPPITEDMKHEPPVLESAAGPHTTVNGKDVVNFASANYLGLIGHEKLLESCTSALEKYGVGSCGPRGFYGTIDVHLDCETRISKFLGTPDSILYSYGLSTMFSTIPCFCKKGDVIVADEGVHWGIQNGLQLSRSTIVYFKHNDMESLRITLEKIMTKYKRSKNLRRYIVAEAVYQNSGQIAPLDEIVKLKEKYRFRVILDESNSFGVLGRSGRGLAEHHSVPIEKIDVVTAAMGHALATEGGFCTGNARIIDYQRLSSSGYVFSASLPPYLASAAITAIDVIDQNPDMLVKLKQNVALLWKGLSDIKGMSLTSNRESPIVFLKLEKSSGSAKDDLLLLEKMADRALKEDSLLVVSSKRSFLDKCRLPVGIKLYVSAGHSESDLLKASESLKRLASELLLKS
T2 sequence 2: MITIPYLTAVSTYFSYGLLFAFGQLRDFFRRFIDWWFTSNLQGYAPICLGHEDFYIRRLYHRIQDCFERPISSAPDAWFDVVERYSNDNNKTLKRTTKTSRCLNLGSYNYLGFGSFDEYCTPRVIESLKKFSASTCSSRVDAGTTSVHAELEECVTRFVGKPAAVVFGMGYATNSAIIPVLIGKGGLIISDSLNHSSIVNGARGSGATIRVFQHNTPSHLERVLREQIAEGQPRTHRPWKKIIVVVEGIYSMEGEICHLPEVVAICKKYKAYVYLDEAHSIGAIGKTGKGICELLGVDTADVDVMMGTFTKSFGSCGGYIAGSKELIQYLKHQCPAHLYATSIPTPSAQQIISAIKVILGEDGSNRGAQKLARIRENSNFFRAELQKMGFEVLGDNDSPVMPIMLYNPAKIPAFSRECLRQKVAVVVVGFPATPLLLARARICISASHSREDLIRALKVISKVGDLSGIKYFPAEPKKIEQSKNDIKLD
T2 sequence 3: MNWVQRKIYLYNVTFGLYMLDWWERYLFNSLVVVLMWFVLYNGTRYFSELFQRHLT

T3: Arabidopsis LCB2a-ΔN5 (Arabidopsis, UniProt Q9LSZ9 1-489, LCB2a-ΔN5 (deletion of residues 2 to 5))
T3 construct: LCB2a, Arabidopsis, with residues 2 to 5 deleted; also called LCB2a-ΔN5 variant
T3 sequence: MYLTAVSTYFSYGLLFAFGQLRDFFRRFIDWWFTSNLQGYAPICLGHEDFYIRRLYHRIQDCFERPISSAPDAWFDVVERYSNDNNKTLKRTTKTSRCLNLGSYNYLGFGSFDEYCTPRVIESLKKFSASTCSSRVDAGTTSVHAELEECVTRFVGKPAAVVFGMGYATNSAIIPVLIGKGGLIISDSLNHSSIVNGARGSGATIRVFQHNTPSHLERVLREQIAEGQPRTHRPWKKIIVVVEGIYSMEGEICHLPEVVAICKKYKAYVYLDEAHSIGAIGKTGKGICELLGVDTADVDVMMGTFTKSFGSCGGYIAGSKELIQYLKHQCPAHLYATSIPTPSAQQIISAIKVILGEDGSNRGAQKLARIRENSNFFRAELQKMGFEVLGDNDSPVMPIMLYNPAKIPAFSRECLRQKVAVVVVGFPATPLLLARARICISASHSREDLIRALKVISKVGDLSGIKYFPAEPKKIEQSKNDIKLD

B1: Arabidopsis LCB2a (natural protein)
chain: MITIPYLTAVSTYFSYGLLFAFGQLRDFFRRFIDWWFTSNLQGYAPICLGHEDFYIRRLYHRIQDCFERPISSAPDAWFDVVERYSNDNNKTLKRTTKTSRCLNLGSYNYLGFGSFDEYCTPRVIESLKKFSASTCSSRVDAGTTSVHAELEECVTRFVGKPAAVVFGMGYATNSAIIPVLIGKGGLIISDSLNHSSIVNGARGSGATIRVFQHNTPSHLERVLREQIAEGQPRTHRPWKKIIVVVEGIYSMEGEICHLPEVVAICKKYKAYVYLDEAHSIGAIGKTGKGICELLGVDTADVDVMMGTFTKSFGSCGGYIAGSKELIQYLKHQCPAHLYATSIPTPSAQQIISAIKVILGEDGSNRGAQKLARIRENSNFFRAELQKMGFEVLGDNDSPVMPIMLYNPAKIPAFSRECLRQKVAVVVVGFPATPLLLARARICISASHSREDLIRALKVISKVGDLSGIKYFPAEPKKIEQSKNDIKLD
modifications: pyridoxal 5'-phosphate covalently linked to the ε-amino group of Lys311 (internal aldimine)
notes: LCB2a, subunit of serine palmitoyltransferase, Arabidopsis; codon-optimized cDNA in pCAG without a tag; residues 1 to 36 and 41 to 475 are in the atomic model; The sentence on the PLP link prints 'LCB2b'; the construct is LCB2a; also called AtLCB2a; source: HEK293F, transiently cotransfected with the other subunits, purified as a complex (anti-Flag resin, Superose 6) in GDN

Legend:
[1] = biological target: T1, Flag-tagged Arabidopsis SPTssa; assay: cryo-EM structure; single-particle cryo-EM of the coexpressed, purified complexes (WT, ORM1-N17A, LCB2a-ΔN5) at ~18 mg/ml in 25 mM Hepes pH 7.5, 150 mM NaCl, 0.01% GDN; the LCB2a-ΔN5 sample preincubated with 0.5 mM PLP, 10 mM L-serine and 1 mM S-CoA; details: both partners purified
[2] = biological target: T2, Arabidopsis SPT complex (LCB1, LCB2a, …); assay: cell-based or functional assay
Arabidopsis LCB2a = biological target: B1; assay: cryo-EM structure; single-particle cryo-EM of the coexpressed, purified complexes (WT, ORM1-N17A, LCB2a-ΔN5) at ~18 mg/ml in 25 mM Hepes pH 7.5, 150 mM NaCl, 0.01% GDN; the LCB2a-ΔN5 sample preincubated with 0.5 mM PLP, 10 mM L-serine and 1 mM S-CoA; details: both partners purified
Arabidopsis LCB2a-ΔN5 = biological target: T3, Arabidopsis LCB2a-ΔN5; assay: as above; details: both partners purified
[3] = biological target: the molecule itself; assay: as above

Binder	stoichiometry N [1]	binding result (Arabidopsis LCB2a)	other results
Arabidopsis LCB1 (natural protein, UniProt Q94IB8 1-482, looked up, LCB1, subunit of serine palmitoyltransferase, Arabidopsis; codon-optimized cDNA in pCAG without a tag; residues 36 to 480 are in the atomic model; also called AtLCB1; source: HEK293F, transiently cotransfected with the other subunits, purified as a complex (anti-Flag resin, Superose 6) in GDN) MASNLVEMFNAALNWVTMILESPSARVVLFGVPIRGHFFVEGLLGVVIIILLTRKSYKPPKRPLTEQEIDELCDEWVPEPLIPPITEDMKHEPPVLESAAGPHTTVNGKDVVNFASANYLGLIGHEKLLESCTSALEKYGVGSCGPRGFYGTIDVHLDCETRISKFLGTPDSILYSYGLSTMFSTIPCFCKKGDVIVADEGVHWGIQNGLQLSRSTIVYFKHNDMESLRITLEKIMTKYKRSKNLRRYIVAEAVYQNSGQIAPLDEIVKLKEKYRFRVILDESNSFGVLGRSGRGLAEHHSVPIEKIDVVTAAMGHALATEGGFCTGNARIIDYQRLSSSGYVFSASLPPYLASAAITAIDVIDQNPDMLVKLKQNVALLWKGLSDIKGMSLTSNRESPIVFLKLEKSSGSAKDDLLLLEKMADRALKEDSLLVVSSKRSFLDKCRLPVGIKLYVSAGHSESDLLKASESLKRLASELLLKS	1	–	–
B1	1	–	–
Arabidopsis ORM1 (natural protein, ORM1, Arabidopsis; codon-optimized cDNA in pCAG without a tag; residues 1 to 156 are in the atomic model; also called AtORM1; WT ORM1) MANLYVKAVPPPDMNRNTEWFMYPGVWTTYMLILFFGWLVVLSVSGCSPGMAWTVVNLAHFVVTYHSFHWMKGTPFADDQGIYNGLTWWEQMDNGQQLTRNRKFLTLVPVVLYLIASHTTDYRHPWLFLNTLAVMVLVVAKFPNMHKVRIFGINGDK	1	binds	specific SPT activity of the purified SPT-ORM1 complex at saturating conditions, relative to the SPT complex [2]: ~50%; binding result (Arabidopsis LCB2a-ΔN5): binds
Arabidopsis SPT-ORM1 complex (LCB1, LCB2a, SPTssa, ORM1) (complex, pyridoxal 5'-phosphate covalently linked to the ε-amino group of Lys311 (internal aldimine), LCB1, Arabidopsis; as m1; LCB2a, Arabidopsis; as m2; SPTssa, Arabidopsis; as m3; ORM1, Arabidopsis; as m4; One protomer (1:1:1:1) of the dimer seen by cryo-EM; an endogenous ceramide copurifies between ORM1 and LCB2a; also called AtSPT-ORM1; WT SPT-ORM1 complex; source: HEK293F, transiently cotransfected (LCB1:LCB2a:ORM1:SPTssa = 3:3:3:1), purified (anti-Flag resin, Superose 6) in GDN; not shown: …) chain 1: MASNLVEMFNAALNWVTMILESPSARVVLFGVPIRGHFFVEGLLGVVIIILLTRKSYKPPKRPLTEQEIDELCDEWVPEPLIPPITEDMKHEPPVLESAAGPHTTVNGKDVVNFASANYLGLIGHEKLLESCTSALEKYGVGSCGPRGFYGTIDVHLDCETRISKFLGTPDSILYSYGLSTMFSTIPCFCKKGDVIVADEGVHWGIQNGLQLSRSTIVYFKHNDMESLRITLEKIMTKYKRSKNLRRYIVAEAVYQNSGQIAPLDEIVKLKEKYRFRVILDESNSFGVLGRSGRGLAEHHSVPIEKIDVVTAAMGHALATEGGFCTGNARIIDYQRLSSSGYVFSASLPPYLASAAITAIDVIDQNPDMLVKLKQNVALLWKGLSDIKGMSLTSNRESPIVFLKLEKSSGSAKDDLLLLEKMADRALKEDSLLVVSSKRSFLDKCRLPVGIKLYVSAGHSESDLLKASESLKRLASELLLKS chain 2: MITIPYLTAVSTYFSYGLLFAFGQLRDFFRRFIDWWFTSNLQGYAPICLGHEDFYIRRLYHRIQDCFERPISSAPDAWFDVVERYSNDNNKTLKRTTKTSRCLNLGSYNYLGFGSFDEYCTPRVIESLKKFSASTCSSRVDAGTTSVHAELEECVTRFVGKPAAVVFGMGYATNSAIIPVLIGKGGLIISDSLNHSSIVNGARGSGATIRVFQHNTPSHLERVLREQIAEGQPRTHRPWKKIIVVVEGIYSMEGEICHLPEVVAICKKYKAYVYLDEAHSIGAIGKTGKGICELLGVDTADVDVMMGTFTKSFGSCGGYIAGSKELIQYLKHQCPAHLYATSIPTPSAQQIISAIKVILGEDGSNRGAQKLARIRENSNFFRAELQKMGFEVLGDNDSPVMPIMLYNPAKIPAFSRECLRQKVAVVVVGFPATPLLLARARICISASHSREDLIRALKVISKVGDLSGIKYFPAEPKKIEQSKNDIKLD chain 3: MNWVQRKIYLYNVTFGLYMLDWWERYLFNSLVVVLMWFVLYNGTRYFSELFQRHLT chain 4: MANLYVKAVPPPDMNRNTEWFMYPGVWTTYMLILFFGWLVVLSVSGCSPGMAWTVVNLAHFVVTYHSFHWMKGTPFADDQGIYNGLTWWEQMDNGQQLTRNRKFLTLVPVVLYLIASHTTDYRHPWLFLNTLAVMVLVVAKFPNMHKVRIFGINGDK	–	–	stoichiometry N [3]: 2
Arabidopsis ORM1-N17A (natural protein, ORM1, Arabidopsis, with N17A; residues 1 to 11 almost invisible in the map; also called ORM1-N17A variant) MANLYVKAVPPPDMNRATEWFMYPGVWTTYMLILFFGWLVVLSVSGCSPGMAWTVVNLAHFVVTYHSFHWMKGTPFADDQGIYNGLTWWEQMDNGQQLTRNRKFLTLVPVVLYLIASHTTDYRHPWLFLNTLAVMVLVVAKFPNMHKVRIFGINGDK	–	binds	–
